Experimental data published in US8357523B2, “Beta-glucosidase variant enzymes and related polynucleotides” (Codexis, Inc., priority 2009, dated 2013).

Key:
[1] = Saccharification of microcrystalline cellulose by Trichoderma reesei whole cellulase supplemented with β-glucosidase; assay type: biochemical; settings: 1 g/L TRWC alone or 25% of TRWC substituted with the β-glucosidase; 200 g/L Avicel, 100 g/L xylose, pH5.5, 55° C., 48 hours
Excerpt: FIG. 12 illustrates the impact of supplementing a commercially available Trichoderma reesei whole cellulose (“TRWC”) mixture with a CelA variant of the present invention. Compositions containing TRWC were supplemented with β-glucosdiases CelA Variant No. 264 (“Cel var1”), CelA Variant No. 366 (“Cel var2”), and a commercially available Aspergillus niger β-glucosidase (“ANBG”) in a ratio of 3:1 TRWC to β-glucosidase. The effectiveness of each composition at hydrolyzing microcrystalline cellulose was evaluated as described in Example 15. A plot of glucose and cellobiose concentration (g/L) vs. cellulase composition is depicted. The control composition was TRWC with no added β-glucosidase.
The impact of adding a CelA variant of the present invention to commercially available cellulose mixtures and microcrystalline cellulose, Avicel™, was evaluated. In the test reactions, 1 g/L Trichoderma reesei whole cellulose (“TRWC”, Sigma catalog #C85456-10KU (ATCC 26921)) was used to convert 200 g/L of the microcrystalline cellulose Avicel™ (200 mM Sodium acetate; 100 g/L xylose, pH5.5 and 55° C.). The amount of glucose was measured after 48 hours of reaction. As a comparison, 25% of the TRWC was replaced with a β-glucosidase: Variant No. 264 (“Cel var1”), Variant No. 366 (“Cel var2”), or with the commercially available cellobiase, Aspergillus niger beta-glucosidase (“ANBG”, Sigma catalog #49291-1G). […]

[2] = Enzyme stability: residual activity on pNPG after pre-incubation at high temperature and low pH; assay type: biochemical; settings: residual activity on pNPG at pH 7, 30° C.
Method: Residual activity is determined by exposing the enzyme to stress conditions of elevated temperature for a period of time and then determining the β-glucosidase activity. The β-glucosidase activity of the enzyme exposed to stress conditions (“a”) is compared to that of a control in which the enzyme is not exposed to the stress conditions (“b”), and residual activity is equal to the ratio a/b. Exemplary conditions for determining thermostability are provided in Examples 9 and 13. In one embodiment the enzymes are exposed to stress conditions of 50° C. at pH 5.5 or 55° C. at pH 5.0 or 55° C. at pH 5.5, or 65° C. at pH 5.0 for about 1 hour, and assayed at 30° C., pH 7, for about 0.1 hour.
A colorimetric pNPG (p-nitrophenyl-(β-D-glucopyranoside)-based assay was used for measuring β-glucosidase activity. In a total volume of 100 μL, 20 μL clear media supernatant containing β-glucosidase enzyme was added to 4 mM pNPG (Sigma-Aldrich, Inc. St. Louis, Mo.) solution in 50 mM sodium phosphate buffer at pH6.5. The reactions were incubated at pH 6.5, 45° C. for 1 hour. The reaction mixture was quenched with 100 μL of 1M sodium carbonate pH 11 solution. The absorbance of the solution was measured at 405 nm to determine the conversion of pNPG to p-nitrophenol. The release of p-nitrophenol (ε=17,700 M−1 cm−1) was measured at 405 nm to calculate β-glucosidase activity. Detectable β-glucosidase activity was observed under high throughput screening conditions (pH 7, 50° C.).
Four CelA variants and wildtype CelA were characterized to determine their stabilities at high temperature (55° C.) and low pH (pH5.5) using the method of Example 5A. The samples containing various CelA variant enzymes were pre-incubated at pH 5.5, 55° C. for 0-6 hrs. The residual enzyme activity after the thermal challenge was measured using pNPG as substrate at pH 7, 30° C. for 1 hr. […] The mutations listed in the table are indicated relative to SEQ ID NO: 4, the wildtype CelA. These sequences included residues GTS prior to the N-terminus of SEQ ID NO: 4 (prepared as described in Example 1). […]

cellobiose and glucose combined yielded in saccharification reaction [1]: comparable results
B1: Variant No. 264 (protein)
chain: SAAIAQEGAAPAAMLHPEKWPRPATQRLIDPAVEKRVDALLKQLSVEEKVGQVIQGDIGTITPEDLRKYPLGSILAGGDSGPNGDDRAPPKEWLDLADAFYRVSLEKRPGHTPIPVLFGIDAVHGHGNIGSATIFPHNIALGMTRDPELLRRIGEVTAEEMAATGIDWTFAPALSVVRDDRWGRTYEGFSEDPEIVASYSAAIVEGVQGKYGSKDFMAPGRAVACAKHFLADGGTDQGRDQGDARISEDELIRIHNAGYPPAIDAGVLTVMASFSSWQGIKHHGHKQLLTDVLKGQMGFNGFIVGDWNAHDQVPGCTKFNCPTSLIAGLDMYMAADSWKQLYENTLAQVKDGTIPMARLDDAVRRILRVKVLAGLFEKPAPKDRPGLPGLETLGSPEHRAVGREAVRKSLVLLKNDKGTLPLSPKARVLVAGDGADNIGKQSGGWTISWQGTGNRNDEFPGATSILGGIRDAVADAGGSVEFDVAGQYKTKPDVAIVVFGEEPYAEFRGDVETLEYQPDQKQDLTLLKKLKDQGIPVVAVFLSGRPMWVNPELNASDAFVAAWLPGTEGGGVADVLFTDKAGKVQHDFAGKLSYSWPRTAAQTTVNRGDADYNPLFAYGYGLTYKDKSKVGTLPEESGVPAEARQN
% residual activity after 10 mins @ pH 5.5, 55° C. ([2]; pre-incubation 10 mins at pH 5.5, 55° C., 1 hr): 95%
% residual activity after 1 hour @ pH 5.5, 55° C. ([2]; pre-incubation 1 hour at pH 5.5, 55° C.): 78%
% residual activity after 6 hours @ pH 5.5, 55° C. ([2]; pre-incubation 6 hours at pH 5.5, 55° C., 1 hr): 11%
